Literature values as cited in PMC4065351.

Test system: Cys2 (position 2, ----ECG----)
Settings: free reduced glutathione

Glutathione (GSH, gamma-L-glutamyl-L-cysteinylglycine) (not applicable (ubiquitous low-molecular-weight thiol))
pKa: 8.93
